{"source": "paper PMC5430790", "origin": "cited, not measured here", "key": {"TβR-II (Homo sapiens)": {"target": "TβR-II (Homo sapiens) (UniProt P37173)", "sequence (P37173 23-166)": "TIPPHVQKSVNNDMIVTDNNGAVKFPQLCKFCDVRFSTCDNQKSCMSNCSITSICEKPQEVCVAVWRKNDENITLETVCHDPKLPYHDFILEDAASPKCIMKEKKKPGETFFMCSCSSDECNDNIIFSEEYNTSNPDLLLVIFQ"}, "TβR-I (Homo sapiens)": {"target": "TβR-I (Homo sapiens) (UniProt P36897)", "sequence (P36897 34-126)": "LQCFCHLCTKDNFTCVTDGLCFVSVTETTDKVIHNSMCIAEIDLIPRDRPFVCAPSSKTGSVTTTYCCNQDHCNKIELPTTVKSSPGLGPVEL"}}, "note": "pKd: −log10 of the molar value.", "data": [{"substance": "TGF-β1 (from UniProt P01137)", "values": [{"measurement": "pKd", "setting": "TβR-II (Homo sapiens)", "value": 6.72}, {"measurement": "pKd", "setting": "TβR-I (Homo sapiens)", "value": 4.15}]}]}
